Our source for the fold reduction of co-immunoprecipitation against wild-type Spt6 values is paper doi:10.1101/2022.04.27.489770.

The target of this test is Spt6-YW with a C-terminal 3XFLAG epitope tag (S. cerevisiae) (UniProt P23615). Description: co-IP.
Sequence of UniProt P23615 (P23615 whole entry): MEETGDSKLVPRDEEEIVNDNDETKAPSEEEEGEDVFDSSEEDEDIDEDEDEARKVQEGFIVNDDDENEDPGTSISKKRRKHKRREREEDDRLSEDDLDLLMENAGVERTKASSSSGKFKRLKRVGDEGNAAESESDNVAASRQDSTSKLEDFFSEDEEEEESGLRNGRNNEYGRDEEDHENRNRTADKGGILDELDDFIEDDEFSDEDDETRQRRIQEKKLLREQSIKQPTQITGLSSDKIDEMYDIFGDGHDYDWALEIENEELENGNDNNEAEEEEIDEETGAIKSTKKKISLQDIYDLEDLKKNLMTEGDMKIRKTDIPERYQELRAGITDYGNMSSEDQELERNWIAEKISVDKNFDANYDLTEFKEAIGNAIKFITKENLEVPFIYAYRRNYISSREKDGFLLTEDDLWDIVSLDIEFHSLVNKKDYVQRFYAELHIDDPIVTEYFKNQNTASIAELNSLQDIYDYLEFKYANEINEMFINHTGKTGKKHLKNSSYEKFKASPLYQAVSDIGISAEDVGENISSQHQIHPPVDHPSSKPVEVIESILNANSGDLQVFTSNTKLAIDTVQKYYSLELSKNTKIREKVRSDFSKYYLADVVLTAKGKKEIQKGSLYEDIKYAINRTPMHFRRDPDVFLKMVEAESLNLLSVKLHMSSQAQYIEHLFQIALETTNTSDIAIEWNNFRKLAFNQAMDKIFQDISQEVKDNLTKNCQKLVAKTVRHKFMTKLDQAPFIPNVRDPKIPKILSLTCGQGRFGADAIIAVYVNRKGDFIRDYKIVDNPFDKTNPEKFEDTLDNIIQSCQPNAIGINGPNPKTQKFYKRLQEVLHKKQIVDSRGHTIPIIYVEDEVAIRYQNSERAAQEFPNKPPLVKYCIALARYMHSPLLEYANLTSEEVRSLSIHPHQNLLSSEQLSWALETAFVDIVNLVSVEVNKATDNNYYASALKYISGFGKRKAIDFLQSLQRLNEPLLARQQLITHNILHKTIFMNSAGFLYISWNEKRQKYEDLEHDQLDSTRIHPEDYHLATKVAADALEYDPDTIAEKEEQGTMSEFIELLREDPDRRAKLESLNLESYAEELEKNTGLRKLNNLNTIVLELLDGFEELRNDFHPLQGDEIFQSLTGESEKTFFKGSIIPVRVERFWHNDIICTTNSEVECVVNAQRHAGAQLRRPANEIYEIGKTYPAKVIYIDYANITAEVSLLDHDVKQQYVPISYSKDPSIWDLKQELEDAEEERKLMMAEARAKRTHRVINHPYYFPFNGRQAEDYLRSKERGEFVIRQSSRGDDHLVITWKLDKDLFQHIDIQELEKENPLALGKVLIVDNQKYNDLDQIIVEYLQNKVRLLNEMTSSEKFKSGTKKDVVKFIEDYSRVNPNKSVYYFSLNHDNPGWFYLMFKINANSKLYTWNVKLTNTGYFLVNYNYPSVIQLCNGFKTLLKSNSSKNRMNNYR

B1: Mcm4-V5 (natural protein)
chain: MSQQSSSPTKEDNNSSSPVVPNPDSVPPQLSSPALFYSSSSSQGDIYGRNNSQNLSQGEGNIRAAIGSSPLNFPSSSQRQNSDVFQSQGRQGRIRSSASASGRSRYHSDLRSDRALPTSSSSLGRNGQNRVHMRRNDIHTSDLSSPRRIVDFDTRSGVNTLDTSSSSAPPSEASEPLRIIWGTNVSIQECTTNFRNFLMSFKYKFRKILDEREEFINNTTDEELYYIKQLNEMRELGTSNLNLDARNLLAYKQTEDLYHQLLNYPQEVISIMDQTIKDCMVSLIVDNNLDYDLDEIETKFYKVRPYNVGSCKGMRELNPNDIDKLINLKGLVLRSTPVIPDMKVAFFKCNVCDHTMAVEIDRGVIQEPARCERIDCNEPNSMSLIHNRCSFADKQVIKLQETPDFVPDGQTPHSISLCVYDELVDSCRAGDRIEVTGTFRSIPIRANSRQRVLKSLYKTYVDVVHVKKVSDKRLDVDTSTIEQELMQNKVDHNEVEEVRQITDQDLAKIREVAAREDLYSLLARSIAPSIYELEDVKKGILLQLFGGTNKTFTKGGRYRGDINILLCGDPSTSKSQILQYVHKITPRGVYTSGKGSSAVGLTAYITRDVDTKQLVLESGALVLSDGGVCCIDEFDKMSDSTRSVLHEVMEQQTISIAKAGIITTLNARSSILASANPIGSRYNPNLPVTENIDLPPPLLSRFDLVYLVLDKVDEKNDRELAKHLTNLYLEDKPEHISQDDVLPVEFLTMYISYAKEHIHPIITEAAKTELVRAYVGMRKMGDDSRSDEKRITATTRQLESMIRLAEAHAKMKLKNVVELEDVQEAVRLIRSAIKDYATDPKTGKIDMNLVQTGKSVIQRKLQEDLSREIMNVLKDQASDSMSFNELIKQINEHSQDRVESSDIQEALSRLQQEDKVIVLGEGVRRSVRLNNRV
B1: the fold reduction of co-immunoprecipitation against wild-type Spt6 amounted to 2 fold.
